Data on two molecules can be found in PMC4734655.

This experiment has as its target recombinant human IL-8 (interleukin-8) (human). The experiment can be described thus: SPR; Biacore; IL-8 immobilised on a CM5 chip by amine coupling (Fc2), BSA on the reference cell (Fc1); soluble recombinant Mtb proteins as analytes at 2.5, 5, 10 and 20 uM; 22 °C, PBS pH 7.4 with 0.005% P20; flow 5 ul/min; one-to-one model. For orientation: In SPR one partner is held on a chip, and binding of the other changes the refractive index at the surface.

B1: recombinant M. tuberculosis rGlmU (His-tagged, from pHis-glmU) (enzyme)
chain: MTFPGDTAVLVLAAGPGTRMRSDTPKVLHTLAGRSMLSHVLHAIAKLAPQRLIVVLGHDHQRIAPLVGELADTLGRTIDVALQDRPLGTGHAVLCGLSALPDDYAGNVVVTSGDTPLLDADTLADLIATHRAVSAAVTVLTTTLDDPFGYGRILRTQDHEVMAIVEQTDATPSQREIREVNAGVYAFDIAALRSALSRLSSNNAQQELYLTDVIAILRSDGQTVHASHVDDSALVAGVNNRVQLAELASELNRRVVAAHQLAGVTVVDPATTWIDVDVTIGRDTVIHPGTQLLGRTQIGGRCVVGPDTTLTDVAVGDGASVVRTHGSSSSIGDGAAVGPFTYLRPGTALGADGKLGAFVEVKNSTIGTGTKVPHLTYVGDADIGEYSNIGASSVFVNYDGTSKRRTTVGSHVRTGSDTMFVAPVTIGDGAYTGAGTVVREDVPPGALAVSAGPQRNIENWVQRKRPGSPAAQASKRASEMACQQPTQPPDADQTP
For the molecule B1, the Kd (in general, the equilibrium constant for the complex coming apart) was determined as 5.24 µM.

B2: recombinant M. tuberculosis rAtsG (His-tagged, from pHis-atsG) (enzyme)
chain: MTSERATGQRENLLIVHWHDLGRYLGVYHHPDVYSPRLDRLAAEGILFTRAHATAPLCTPSRGSLFTGRYPQSNGLVGLAHHGWEYRTGVQTLPQLLSESGWYSALFGMQHETSYPKRLGFDEFDVSNSYCEYVVAKAQDWLHNRVPALDGQRFLLTAGFFETHRPYPHERYRPADSAAVELPDYLPDTPEVRQDVAEFYGSIATADEAVGRLLDTLADTGLDASTWVVFVTDHGPAFPRAKSTLYDAGTGIALIIRPPTRRAMAPRVYDELFSGVDLVPTLLDLLRLEVPADVEGVSHAPALLAPDTENAAVRDHVYTAKTYHDSFDPIRAIRTKEYSYIENYAPRPLLDLPWDIQESPAGMAVAPLVKAPRPQRELYDLRADPTETNNLLAGDDSTQGVAAIAADLAVRLHDWRQRTADVIPSDFAGSRIAERYTETYLRIHRKTPTGRSAIAADRGIDEHCS
Take B2: the Kd amounted to 6.83 µM.
